Experimental data from the nanobody polyreactivity screen of Harvey et al. (2022).

assay: yeast display, Sf9 membrane polyspecificity reagent, FACS + sequencing; frameworks hold sequencing errors
How it was run: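 Genes from sorted yeast were amplified by colony PCR, read by MiSeq 2 × 250 sequencing and filtered on CDR length. These cells carried a synthetic nanobody library in Saccharomyces cerevisiae BJ5465 and were sorted by FACS into low and high (top ~1%) gates on anti-HA and streptavidin fluorescence. Polyreactivity is labelled according to the gate of origin.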

Sequence	polyreactivity (PSR sort gate)
QVQLVESGGGLVQAGGSLRLSCAASGSIFYRNAMGWYRQAPGKERELVAAISASGGSTYYADSVKGRFTISRDNAKNTVYLQMNSLKPEDTAVYYCAASRYYSRYDYWGQGTQVTVSS	high polyreactivity
QVQLVESGGGLVQAGGSLRLSCAASGSIFYRNAMGWYRQAPGKERELVAAISGRGGSTYYADSVKGRFTISRDYAKNTVYLQMYSLKPEDTAVYYCAKDHYRERKYDYWGQGTQVTVSS	low polyreactivity
QVQLVESGGGLVQAGGSLRLSCAASGSIFYRNAMGWYRQAPGKERELVAAISRSGGSTYYADSVKGRFTISRDNAKNTVYLQMNSLKPEDTAVYYCAKARPLGGTPSNGFDYWGQGTQVTVSS	high polyreactivity
QVQLVESGGGLVQAGGSLRLSCAASGSIFYRNAMGWYRQAPGKERELVAAITRSDGRTYYADSVKGRFTISRDNAKNTVYLQMNSLKPEDTAVYYCNADHPFPQYEGGSWGQGTQVTVSS	low polyreactivity
QVQLVESGGGLVQAGGSLRLSCAASGSIFYRNRMGWYRQAPGKERELVAAIRYSGDNTYYADSVKGRFTISRDNAKNTVYLQMNSLKPEDTAVYYCAADFPDYEYWGQGTQVTVSS	high polyreactivity
QVQLVESGGGLVQAGGSLRLSCAASGSIFYRNTMGWYRQAPGKERELVAAITYSGGSTYYADSVKGRFTISRDNAKNTVYLQMNSLKPEDTAVYYCAVTDFYSYLLRYDSWGQGTQVTVSS	low polyreactivity
QVQLVESGGGLVQAGGSLRLSCAASGSIFYRNTMGWYRQAPGKERELVASINTGTGTYYADSVKGRFTISRDNAKNTVYLQMNSLKPEDTAVYYCNSKGWVWPFPSYYPYDSWGQGTQVTVSS	high polyreactivity
QVQLVESGGGLVQAGGSLRLSCAASGSIFYRNTMGWYRQATGKERELVARISNGGSTNYADSVKGRFTISRDNAKNTVYLQMNSLKPEDTAVYYCNARRGSATHSVTARRGYWGQGTQVTVSS	high polyreactivity
QVQLVESGGGLVQAGGSLRLSCAASGSIFYRYAMGWSRQAPGKERELVAYISSGVSTNYADSVKGRFTISRDNAKKTVYLQMNSLKPEDTAVYYCAVRHSYTRAYWGRDFWGQGTQVTVSS	low polyreactivity
QVQLVESGGGLVQAGGSLRLSCAASGSIFYRYAMGWYREAPGKERELVAAISSSGGSTYYADSVKGRFTISRDNAKNTVYSQMNSLKPEDTAVYYCNTDRYYTYDYWGQGTQVTVSS	low polyreactivity
QVQLVESGGGLVQAGGSLRLSCAASGSIFYRYAMGWYRQAPGKERELVAAITQSTDSTYYADSVKGRFTISRDNAKNTVYLQMNSLKPEDSAVYYCDAYLVYYRPYAYGYWGQGTQVTVSS	low polyreactivity
QVQLVESGGGLVQAGGSLRLSCAASGSIFYRYARGWYRQAPGKERELVAAISYNGGRTYYADSVKGRFTISRDNAKNTVYLQMNSLKPEDTAVYYCNAAGRDDAYDYWGQGTQVTVSS	high polyreactivity
QVQLVESGGGLVQAGGSLRLSCAASGSIFYRYTMGWSRQAPGKERELVAAITYSGGSTYYADSVKGRFTISRDNAKNTVYLQMNSLIPEDTAVYYCNKDYYSGQSGYNYWGQGTQVTVSS	low polyreactivity
QVQLVESGGGLVQAGGSLRLSCAASGSIFYRYTMGWYRQAPVTERELVAVISRRGGSTYYADSVKGRFTISRDNEKNTVYLQMNRLKPEDTAVYYCAVPQYRTSVRQGNTLWDDYWGQGTQVTVSS	high polyreactivity
QVQLVESGGGLVQAGGSLRLSCAASGSIFYRYTMGWYRQARGKERELVAAISSDGGSTYYADSVKGRFTISRDNAKKTVYLQMNSLKPEDTAVYYCAAGQDGHSDWGQGTQVTVSS	low polyreactivity
QVQLVESGGGLVQAGGSLRLSCAASGSIFYSNAMGWSRPAPGKEWELVAGITWTGGSTYYADSVKGRFTISRDNAKNTVYLQMNSLKPEYTEVYYCADRVYYRTVLGGYYYWGQGTQVTVSS	low polyreactivity
QVQLVESGGGLVQAGGSLRLSCAASGSIFYSNAMGWYRQAPGKEREFVAAISAGGGSTYYADSVKGRFTISRDHSKNTVYFQMNSLKPEDTAVYYCAKGPLPRAGVKFDYWGQGTQVTVSS	low polyreactivity
QVQLVESGGGLVQAGGSLRLSCAASGSIFYSNAMGWYRQAPGKERELVAAISVSGVSTYYADSVKGRFTISRDNAKNTVYLQMNSLKPEDTAVYYCAADTGYRYDDYYWWGGEYDYWGQGTQVTVSS	low polyreactivity
QVQLVESGGGLVQAGGSLRLSCAASGSIFYSYAMGRYRQAPGKERELVAAITKSSGSTYYADSVKGRFTISRDNAKNTVYLQMNSLKPEDTAVYYCAATRYRPVRLYYWGQGTQVTVSS	high polyreactivity
QVQLVESGGGLVQAGGSLRLSCAASGSIFYSYAMGWYRQAPGKEREFVAAISWSASRTYYADSVKGRFTISRDNAKNTVYLQMNSLKPADTAVYDCAARTYYNRGYYYWGQGTQVTVSS	high polyreactivity
QVQLVESGGGLVQAGGSLRLSCAASGSIFYSYAMGWYRQAPGKERELVADITSSGGSTYYADSVKGRFTISRDNAKNTVYFQMNSLKPEDTAVYYCAASSPAFYGMRYNYWGHGTQVTVSS	low polyreactivity
QVQLVESGGGLVQAGGSLRLSCAASGSIFYTNAMGWYRQAPGKERELFASISRRGGSTYYADSVKGRFTISRDNAKNTVYLQMNSLKPEDTAVYYFATDGYTPYRWLWWLMDYWGQGTQVTVSS	high polyreactivity

Sequence	polyreactivity (PSR sort gate)
QVQLVESGGGLVQAGGSLRLSCAASGSIFYTNAMGWYRQAPGKERELVAAIRWSGGRTYYADSVKGRFTISRDNAKNSVYLQMNSLKPEDTAVYYCNKVPRTPIPYKYGYWGQGTQVTVSS	high polyreactivity
QVQLVESGGGLVQAGGSLRLSCAASGSIFYTNAMGWYRQAPGKERELVASIRTGGSTNYADSVKGRFTISRDNAKNTVYLQMNSLKPEDTAVYYCNADDPDYHGSIDDLDYDYWGQGTQVTVSS	low polyreactivity
QVQLVESGGGLVQAGGSLRLSCAASGSIFYTYAMGWYRQAPGKERELVAAISWSDTTTYYAVSVKGRFTISRDSAKNTVYLQMNSLKPEDTAVYYFAADAYTNSYWYDYWGQGTQVTLSS	high polyreactivity
QVQLVESGGGLVQAGGSLRLSCAASGSIFYTYAMGWYRQAPGKERELVAAITYRVGSTYYADSVKGRFTISRDNAKNTVYLQMNSLKPEDTAVYYCNADKGGHVRHYDYWGQGTQVTVSS	low polyreactivity
QVQLVESGGGLVQAGGSLRLSCAASGSIFYTYAMGWYRQAPGKERELVADISSRGGSTYYADSVKGRFTISRDNAKNTVYLQMNSLKPEDTAVYYCNAPQGFVWRYSSWGPYDYWGQGTQVTVSS	high polyreactivity
QVQLVESGGGLVQAGGSLRLSCAASGSIFYTYVMGWYRQAPGKERELVAAISGTGGRTYYADSVKGRFTISRDNAKNTVYLQMTSLKPEDTAVYYCATRAYHKGFYRITYYYWGQGTQVTVSS	high polyreactivity
QVQLVESGGGLVQAGGSLRLSCAASGSIFYVNAMGWYRQAPGKEREFVADITWSSGGRTYYADSVKGRFTISRDNAKNTVYLQMNSLKPDDTAVYYCAAPRYYYYSYDYWGQGTQVTVSS	high polyreactivity
QVQLVESGGGLVQAGGSLRLSCAASGSIFYVNAMGWYRQAPGKESELVAAISFSGGTTYYADSVKGRFTISRDNAKNTVYLQMNSLKPEDTAVYYCNTPSSREMDYWGQGTQVTVSS	low polyreactivity
QVQLVESGGGLVQAGGSLRLSCAASGSIFYVNTMGWYRQAPGKEREFVAAISGSGGSTRYADSVKGRFTISRDNAKNTVYLQMNSLKPEDTAVYYCAADRYTYIWYHIYDYWGQGTQVTVSS	low polyreactivity
QVQLVESGGGLVQAGGSLRLSCAASGSIFYVNTMGWYRQAPGKERELVAGITSRGGSTYYADSVKGRFTISRDNAKNTVYLQMNSLKPEDTAVYYCAKRAYGTALYRGYGYWGQGTQVTVSS	low polyreactivity
QVQLVESGGGLVQAGGSLRLSCAASGSIFYVNTMGWYRQAPGKERELVAVIDYGGDSTYYADSVKGRFTISRDNAKNTVFLQMNSLKPEDTAVYYCAADAYESGNWEANGYWGQGTEVTVSS	low polyreactivity
QVQLVESGGGLVQAGGSLRLSCAASGSIFYVYAMGWYRQAPGKERELVAAISWRGGSTYYADSVKGRFTISRDIAKITVYLQMNSLKPEDTAVYYCNADWSFWGQGTQVTVSS	high polyreactivity
QVQLVESGGGLVQAGGSLRLSCAASGSIFYVYAMGWYRQAPGKERELVAAITNYADSVMGRFTISRDNAKNTVYLQMNSLKPEDTAVYYCAADWWRVEMDYWGLGTQVTVSS	low polyreactivity
QVQLVESGGGLVQAGGSLRLSCAASGSIFYVYAMGWYRQAPGKERELVAAITSSGDTTYYADSVKGRFTISRDNAKNTVYLQMNSLKPEDTAVYYCAKVFGPTDYLTGTFKGDYWGQGTQVTVSS	low polyreactivity
QVQLVESGGGLVQAGGSLRLSCAASGSIFYVYAMGWYRQAPGKERELVAAITWIDGSTYYADSVKGRFTISRDNAKNTVYLQMNSLKPEDTAVYYCAAGGYFYSFYYWGQGTQVTVSS	low polyreactivity
QVQLVESGGGLVQAGGSLRLSCAASGSIFYVYAMGWYRQAPGKERELVADITTRDGDTYYADSVKRRFTISRDNAKNTVYLQMNSLKPEDTAVYYCAADLNAYPLRAYDYWGQGTQVTVSS	low polyreactivity
QVQLVESGGGLVQAGGSLRLSCAASGSIFYVYAMGWYRQAPGKVRELVAAITSSGTTNYADSVKGSFTISRDNAKNTVYLKMNSLKPEDTAVDSCAADPDSGQVPFDYLGQGTQVTVSS	low polyreactivity
QVQLVESGGGLVQAGGSLRLSCAASGSIFYVYAMGWYRQAPGKVRELVATISSSAGSTYYADSVKGRFTISRDNAKNTVYLQMNSLKPEDTAVYYCIADSFLSWVYRYVYYGSAYWGQGSQVTVSS	low polyreactivity
QVQLVESGGGLVQAGGSLRLSCAASGSIFYVYAMGWYRQAPGNERELVAVIRRGGSTKYADSVKGRFTISRDNAKNTVYLQMNSLKPEDTAVYYCNVVGYAYGWQYDYWGQGTQVTVSS	high polyreactivity
QVQLVESGGGLVQAGGSLRLSCAASGSIFYWNAMGWYRQAPGKDREFVAAISRSGGSTYYADSVKGRFTISRDNGKNTVYLQMYSLKPEDTAVYFCAADVFYFTYDYWGQCTQVTVSS	low polyreactivity
QVQLVESGGGLVQAGGSLRLSCAASGSIFYWNAMGWYRQAPGKERELVAAISYNGGSTYYADSVKGRFTISRDNAKNTVYLQMNSLKPEDTAVYYCARLDSAAEPRQYDYWGQGTQVTVSS	high polyreactivity
